{"source": "patent EP4751739A1", "about": "“ANTIBODY-DRUG CONJUGATE TARGETING C-MET AND MEDICAL USE THEREOF” (Jiangsu Hengrui Pharmaceuticals Co., Ltd., priority 2023, dated 2025)", "target": "human c-Met on tumor cell lines (human) (UniProt P08581)", "sequence (P08581 25-1390)": "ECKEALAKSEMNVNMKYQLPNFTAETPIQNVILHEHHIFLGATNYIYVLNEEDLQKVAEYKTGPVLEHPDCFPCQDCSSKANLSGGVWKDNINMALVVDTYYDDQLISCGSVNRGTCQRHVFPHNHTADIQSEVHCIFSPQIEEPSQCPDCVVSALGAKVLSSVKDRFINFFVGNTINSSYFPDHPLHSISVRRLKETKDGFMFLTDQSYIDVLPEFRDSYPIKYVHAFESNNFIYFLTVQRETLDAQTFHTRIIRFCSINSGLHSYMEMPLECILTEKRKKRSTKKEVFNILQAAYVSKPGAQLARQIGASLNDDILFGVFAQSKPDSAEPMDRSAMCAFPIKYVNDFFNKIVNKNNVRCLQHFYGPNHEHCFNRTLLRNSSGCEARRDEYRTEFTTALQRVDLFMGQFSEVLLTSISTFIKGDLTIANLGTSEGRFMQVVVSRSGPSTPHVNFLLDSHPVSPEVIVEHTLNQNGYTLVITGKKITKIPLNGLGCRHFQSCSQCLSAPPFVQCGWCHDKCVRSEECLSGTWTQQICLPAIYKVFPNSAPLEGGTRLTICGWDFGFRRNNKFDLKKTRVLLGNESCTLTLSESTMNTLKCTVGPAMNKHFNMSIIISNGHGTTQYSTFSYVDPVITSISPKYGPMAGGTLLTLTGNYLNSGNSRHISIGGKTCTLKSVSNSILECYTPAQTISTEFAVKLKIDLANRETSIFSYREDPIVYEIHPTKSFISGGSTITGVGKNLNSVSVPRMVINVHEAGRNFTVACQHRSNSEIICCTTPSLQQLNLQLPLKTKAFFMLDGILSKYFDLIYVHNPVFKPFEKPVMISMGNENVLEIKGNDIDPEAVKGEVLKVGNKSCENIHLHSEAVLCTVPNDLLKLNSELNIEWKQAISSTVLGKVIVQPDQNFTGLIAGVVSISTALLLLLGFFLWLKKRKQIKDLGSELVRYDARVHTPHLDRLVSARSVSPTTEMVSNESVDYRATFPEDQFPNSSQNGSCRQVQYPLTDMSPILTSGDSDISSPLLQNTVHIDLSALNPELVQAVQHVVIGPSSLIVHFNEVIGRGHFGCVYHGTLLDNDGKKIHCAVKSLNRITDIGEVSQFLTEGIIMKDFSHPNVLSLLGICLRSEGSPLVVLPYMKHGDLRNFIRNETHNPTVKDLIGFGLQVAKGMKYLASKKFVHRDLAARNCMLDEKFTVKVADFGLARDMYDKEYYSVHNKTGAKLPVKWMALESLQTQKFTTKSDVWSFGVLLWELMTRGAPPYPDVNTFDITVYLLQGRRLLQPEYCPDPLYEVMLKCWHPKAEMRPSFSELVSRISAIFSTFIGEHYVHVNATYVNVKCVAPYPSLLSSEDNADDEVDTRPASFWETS", "test": "cell-based or functional assay", "data": [{"substance": "ABT-700 (antibody)", "values": [{"measurement": "Endocytosis ratio% at 0 h, EBC-1 cells, 20 nM, flow cytometry", "result": 0, "unit": "%"}, {"measurement": "Endocytosis ratio% at 0.5 h, EBC-1 cells, 20 nM, flow cytometry", "result": 5.54, "unit": "%"}, {"measurement": "Endocytosis ratio% at 2 h, EBC-1 cells, 20 nM, flow cytometry", "result": 29.3, "unit": "%"}, {"measurement": "Endocytosis ratio% at 4 h, EBC-1 cells, 20 nM, flow cytometry", "result": 54.2, "unit": "%"}, {"measurement": "Endocytosis ratio% at 24 h, EBC-1 cells, 20 nM, flow cytometry", "result": 97.8, "unit": "%"}]}, {"substance": "Teli-VcMMAE (antibody)", "values": [{"measurement": "Endocytosis ratio% at 0 h, EBC-1 cells, 20 nM, flow cytometry", "result": 0, "unit": "%"}, {"measurement": "Endocytosis ratio% at 0.5 h, EBC-1 cells, 20 nM, flow cytometry", "result": 4.36, "unit": "%"}, {"measurement": "Endocytosis ratio% at 2 h, EBC-1 cells, 20 nM, flow cytometry", "result": 31.7, "unit": "%"}, {"measurement": "Endocytosis ratio% at 4 h, EBC-1 cells, 20 nM, flow cytometry", "result": 58, "unit": "%"}, {"measurement": "Endocytosis ratio% at 24 h, EBC-1 cells, 20 nM, flow cytometry", "result": 97.3, "unit": "%"}]}]}
